Source: PMC7681013, “Structure and kinetics of indole-3-glycerol phosphate synthase from Pseudomonas aeruginosa: Decarboxylation is not essential for indole formation” (The Journal of Biological Chemistry, 2020)

Substrate: O=C(CNc1ccccc1)[C@H](O)[C@H](O)COP(=O)(O)O
Assay: discontinuous spectrophotometric assay of IGP formation (A278)
Type: biochemical, Pseudomonas aeruginosa
Conditions: 50 mM Tris-HCl, 4 mM MgCl2, 0.5 mM TCEP, pH 7.0, 25 °C, substrate made enzymatically in situ from aniline and PRPP, 2.5 μM enzyme

B1: PaIGPS (Pseudomonas aeruginosa PAO1) (protein)
chain: MSVPTVLQKILARKAEEVAERRARVNLAEVERLARSADAPRGFANALLERAKRKEPAVIAEIKKASPSKGVLREHFVPAEIARSYEAGGAACLSVLTDVDFFQGADAYLKEARAACALPVIRKDFMIDPYQIVEARAIGADCILLIVSALDDVLMAELAATAKSVGLDVLVEVHDGTELERALKTLDTPLVGINNRNLHTFEVSLETTLDLLPEIPRDRLVVTESGILNRADVELMEVSEVYAFLVGEAFMRADDPGLELKRLFFQERGAVVLGADPD
Work on B1 yielded a Km of 180 ± 50 µM and a kcat of 0.00442 ± 0.000389 s⁻¹.
